Reference: patent publication US20140294844A1

Target: huPrP23-231 (human) (UniProt P04156)

Question: Which results are given for ICSM-35 (antibody)?
Answer: IC50: 10.4 nM; Kd: 10 nM; Ki: 20 nM
